In the supplement of paper PMC11246515:
± gives the standard deviation of the averaged measurements.

Assay: total protein half-life in vivo (active degradation + dilution); higher = more stable protein
[1] = E. coli NCM3722 delta-clpP, growth: N-lim chemostat, doubling time 6 h
[2] = E. coli NCM3722 delta-hslV, growth: N-lim chemostat, doubling time 6 h
[3] = E. coli NCM3722 delta-lon, growth: N-lim chemostat, doubling time 6 h
[4] = E. coli NCM3722 delta-smpB, growth: N-lim chemostat, doubling time 6 h
[5] = wild type E. coli NCM3722, growth: C-lim chemostat, doubling time 3 h
[6] = wild type E. coli NCM3722, growth: C-lim chemostat, doubling time 6 h
[7] = wild type E. coli NCM3722, growth: C-lim chemostat, doubling time 12 h
[8] = wild type E. coli NCM3722, growth: N-lim chemostat, doubling time 6 h
[9] = wild type E. coli NCM3722, growth: P-lim chemostat, doubling time 12 h
[10] = E. coli NCM3722 delta-clpP delta-lon delta-hslV, growth: N-lim chemostat, doubling time 6 h
[11] = wild type E. coli NCM3722, growth: N-lim chemostat, doubling time 12 h
[12] = wild type E. coli NCM3722, growth: P-lim chemostat, doubling time 6 h

Sequence | total protein half-life in vivo [1] [h] | total protein half-life in vivo [2] [h] | total protein half-life in vivo [3] [h] | total protein half-life in vivo [4] [h] | total protein half-life in vivo [5] [h] | total protein half-life in vivo [6] [h] | total protein half-life in vivo [7] [h] | total protein half-life in vivo [8] [h] | total protein half-life in vivo [9] [h] | total protein half-life in vivo [10] [h] | total protein half-life in vivo [11] [h] | total protein half-life in vivo [12] [h]
MSNILIINGAKKFAHSNGQLNDTLTEVADGTLRDLGHDVRIVRADSDYDVKAEVQNFLWADVVIWQMPGWWMGAPWTVKKYIDDVFTEGHGTLYASDGRTRKDPSKKYGSGGLVQGKKYMLSLTWNAPMEAFTEKDQFFHGVGVDGVYLPFHKANQFLGMEPLPTFIANDVIKMPDVPRYTEEYRKHLVEIFG [P0AEY5] | 1.93 ± 0.14 | 1.94 ± 0.091 | 2.18 ± 0.044 | 2.27 ± 0.32 | 3.31 ± 0.43 | 4.76 ± 0.2 | 6.6 ± 0.75 | 2.12 ± 0.18 | 8.32 ± 0.26 |  |  | 
MKLNATYIKIRDKWWGLPLFLPSLILPIFAHINTFAHISSGEVFLFYLPLALMISMMMFFSWAALPGIALGIFVRKYAELGFYETLSLTANFIIIIILCWGGYRVFTPRRNNVSHGDTRLISQRIFWQIVFPATLFLILFQFAAFVGLLASRENLVGVMPFNLGTLINYQALLVGNLIGVPLCYFIIRVVRNPFYLRSYYSQLKQQVDAKVTKKEFALWLLALGALLLLLCMPLNEKSTIFSTNYTLSLLLPLMMWGAMRYGYKLISLLWAVVLMISIHSYQNYIPIYPGYTTQLTITSSSYLVFSFIVNYMAVLATRQRAVVRRIQRLAYVDPVVHLPNVRALNRALRDAPWSALCYLRIPGMEMLVKNYGIMLRIQYKQKLSHWLSPLLEPGEDVYQLSGNDLALRLNTESHQERITALDSHLKQFRFFWDGMPMQPQIGVSYCYVRSPVNHIYLLLGELNTVAELSIVTNAPENMQRRGAMYLQRELKDKVAMMNRLQQALEHNHFFLMAQPITGMRGDVYHEILLRMKGENDELISPDSFLPVAHEFGLSSSIDMWVIEHTLQFMAENRAKMPAHRFAINLSPTSVCQARFPVEVSQLLAKYQIEAWQLIFEVTESNALTNVKQAQITLQHLQELGCQIAIDDFGTGYASYARLKNVNADLLKIDGSFIRNIVSNSLDYQIVASICHLARMKKMLVVAEYVENEEIREAVLSLGIDYMQGYLIGKPQPLIDTLNEIEPIRESA |  |  |  |  | 2.98 | 5.24 | 9.12 | 4.99 | 11.5 | 5.56 | 6.22 | 
MDVSYLLDSLNDKQREAVAAPRSNLLVLAGAGSGKTRVLVHRIAWLMSVENCSPYSIMAVTFTNKAAAEMRHRIGQLMGTSQGGMWVGTFHGLAHRLLRAHHMDANLPQDFQILDSEDQLRLLKRLIKAMNLDEKQWPPRQAMWYINSQKDEGLRPHHIQSYGNPVEQTWQKVYQAYQEACDRAGLVDFAELLLRAHELWLNKPHILQHYRERFTNILVDEFQDTNNIQYAWIRLLAGDTGKVMIVGDDDQSIYGWRGAQVENIQRFLNDFPGAETIRLEQNYRSTSNILSAANALIENNNGRLGKKLWTDGADGEPISLYCAFNELDEARFVVNRIKTWQDNGGALAECAILYRSNAQSRVLEEALLQASMPYRIYGGMRFFERQEIKDALSYLRLIANRNDDAAFERVVNTPTRGIGDRTLDVVRQTSRDRQLTLWQACRELLQEKALAGRAASALQRFMELIDALAQETADMPLHVQTDRVIKDSGLRTMYEQEKGEKGQTRIENLEELVTATRQFSYNEEDEDLMPLQAFLSHAALEAGEGQADTWQDAVQLMTLHSAKGLEFPQVFIVGMEEGMFPSQMSLDEGGRLEEERRLAYVGVTRAMQKLTLTYAETRRLYGKEVYHRPSRFIGELPEECVEEVRLRATVSRPVSHQRMGTPMVENDSGYKLGQRVRHAKFGEGTIVNMEGSGEHSRLQVAFQGQGIKWLVAAYARLESV | 5.48 ± 0.56 | 3.81 ± 0.25 | 4.29 ± 0.12 | 3.45 ± 0.13 | 2.96 ± 0.033 | 4.72 ± 0.42 | 8.03 ± 1.1 | 3.781 ± 0.029 | 7.8 ± 0.18 | 6.25 ± 0.18 | 5.67 ± 0.15 | 4.83 ± 0.25
MKNIRNFSIIAHIDHGKSTLSDRIIQICGGLSDREMEAQVLDSMDLERERGITIKAQSVTLDYKASDGETYQLNFIDTPGHVDFSYEVSRSLAACEGALLVVDAGQGVEAQTLANCYTAMEMDLEVVPVLNKIDLPAADPERVAEEIEDIVGIDATDAVRCSAKTGVGVQDVLERLVRDIPPPEGDPEGPLQALIIDSWFDNYLGVVSLIRIKNGTLRKGDKVKVMSTGQTYNADRLGIFTPKQVDRTELKCGEVGWLVCAIKDIHGAPVGDTLTLARNPAEKALPGFKKVKPQVYAGLFPVSSDDYEAFRDALGKLSLNDASLFYEPESSSALGFGFRCGFLGLLHMEIIQERLEREYDLDLITTAPTVVYEVETTSREVIYVDSPSKLPAVNNIYELREPIAECHMLLPQAYLGNVITLCVEKRGVQTNMVYHGNQVALTYEIPMAEVVLDFFDRLKSTSRGYASLDYNFKRFQASDMVRVDVLINGERVDALALITHRDNSQNRGRELVEKMKDLIPRQQFDIAIQAAIGTHIIARSTVKQLRKNVLAKCYGGDISRKKKLLQKQKEGKKRMKQIGNVELPQEAFLAILHVGKDNK | 5.46 ± 0.92 | 5.24 ± 0.14 | 5.28 ± 0.43 | 4.79 ± 0.27 | 3.03 ± 0.18 | 5.49 ± 0.072 | 10.2 ± 0.72 | 4.754 ± 0.043 | 12.16 ± 0.1 | 5.44 ± 0.33 | 8.74 ± 0.49 | 5.851 ± 0.057
MNQIDRLLTIMQRLRDPENGCPWDKEQTFATIAPYTLEETYEVLDAIAREDFDDLRGELGDLLFQVVFYAQMAQEEGRFDFNDICAAISDKLERRHPHVFADSSAENSSEVLARWEQIKTEERAQKAQHSALDDIPRSLPALMRAQKIQKRCANVGFDWTTLGPVVDKVYEEIDEVMYEARQAVVDQAKLEEEMGDLLFATVNLARHLGTKAEIALQKANEKFERRFREVERIVAARGLEMTGVDLETMEEVWQQVKRQEIDL [P0AEY3] | 4.1 ± 0.46 | 2.49 ± 0.062 | 3.25 ± 0.4 | 2.49 ± 0.12 | 2.51 ± 0.056 | 5.06 ± 0.058 | 6.42 ± 0.2 | 2.624 ± 0.016 | 6.14 ± 1.5 | 4.85 ± 0.48 | 3.29 ± 0.12 | 3.61 ± 0.13
MLIGYVRVSTNDQNTDLQRNALNCAGCELIFEDKISGTKSERPGLKKLLRTLSAGDTLVVWKLDRLGRSMRHLVVLVEELRERGINFRSLTDSIDTSTPMGRFFFHVMGALAEMERELIVERTKAGLETARAQGRIGGRRPKLTPEQWAQAGRLIAAGTPRQKVAIIYDVGVSTLYKRFPAGDK | 6.3 |  |  |  |  |  | 5.3 | 6.47 | 12.2 ± 1.1 |  |  | 6.11
MESNNGEAKIQKVKNWSPVWIFPIVTALIGAWVLFYHYSHQGPEVTLITANAEGIEGGKTTIKSRSVDVGVVESATLADDLTHVEIKARLNSGMEKLLHKDTVFWVVKPQIGREGISGLGTLLSGVYIELQPGAKGSKMDKYDLLDSPPLAPPDAKGIRVILDSKKAGQLSPGDPVLFRGYRVGSVETSTFDTQKRNISYQLFINAPYDRLVTNNVRFWKDSGIAVDLTSAGMRVEMGSLTTLLSGGVSFDVPEGLDLGQPVAPKTAFVLYDDQKSIQDSLYTDHIDYLMFFKDSVRGLQPGAPVEFRGIRLGTVSKVPFFAPNMRQTFNDDYRIPVLIRIEPERLKMQLGENADVVEHLGELLKRGLRGSLKTGNLVTGALYVDLDFYPNTPAITGIREFNGYQIIPTVSGGLAQIQQRLMEALDKINKLPLNPMIEQATSTLSESQRTMKNLQTTLDSMNKILASQSMQQLPTDMQSTLRELNRSMQGFQPGSAAYNKMVADMQRLDQVLRELQPVLKTLNEKSNALVFEAKDKKDPEPKRAKQ | 7 ± 0.91 |  | 6.43 ± 0.21 | 5.75 ± 0.35 | 3.341 ± 0.027 | 7.13 ± 0.87 | 12.8 ± 1.1 | 5.99 ± 0.28 |  | 6.4 ± 0.49 | 12.9 ± 0.71 | 6.06 ± 0.058
MPSAHSVKLRPLEREDLRYVHQLDNNASVMRYWFEEPYEAFVELSDLYDKHIHDQSERRFVVECDGEKAGLVELVEINHVHRRAEFQIIISPEYQGKGLATRAAKLAMDYGFTVLNLYKLYLIVDKENEKAIHIYRKLGFSVEGELMHEFFINGQYRNAIRMCIFQHQYLAEHKTPGQTLLKPTAQ [P0A951] | 6.01 ± 1.7 | 5.04 ± 1.1 |  | 5.16 ± 0.071 | 2.7 ± 0.18 | 5.17 ± 0.15 | 10.5 ± 0.81 | 4.92 ± 0.18 | 11.6 ± 0.61 | 5.494 ± 0.021 | 9.78 ± 1.9 | 5.06 ± 0.2
MSTQEATLQQPLLQAIDLKKHYPVKKGMFAPERLVKALDGVSFNLERGKTLAVVGESGCGKSTLGRLLTMIEMPTGGELYYQGQDLLKHDPQAQKLRRQKIQIVFQNPYGSLNPRKKVGQILEEPLLINTSLSKEQRREKALSMMAKVGLKTEHYDRYPHMFSGGQRQRIAIARGLMLDPDVVIADEPVSALDVSVRAQVLNLMMDLQQELGLSYVFISHDLSVVEHIADEVMVMYLGRCVEKGTKDQIFNNPRHPYTQALLSATPRLNPDDRRERIKLSGELPSPLNPPPGCAFNARCRRRFGPCTQLQPQLKDYGGQLVACFAVDQDENPQR | 5.92 ± 0.29 | 6.41 ± 0.085 | 6.11 ± 0.94 | 5.605 ± 0.031 | 2.88 ± 0.33 | 6.28 ± 0.43 | 11.6 ± 0.25 | 6.08 ± 0.62 | 13.1 ± 0.21 | 6.25 ± 0.25 | 13.1 ± 0.71 | 6.16 ± 0.27
